Test results: the nanobody polyreactivity screen of Harvey et al. (2022)

test: yeast display, Sf9 membrane polyspecificity reagent, FACS + sequencing; frameworks hold sequencing errors
Outline: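 Galactose induction of a Saccharomyces cerevisiae BJ5465 synthetic nanobody display library ran 36–48 hours. The cells were then stained for 1 hour at 4 °C with 10% biotinylated, detergent-solubilized Sf9 membrane reagent, pulled down on streptavidin microbeads and FACS-sorted into low and high (top ~1%) gates on expression and reagent-binding fluorescence. Labels for polyreactivity follow the gate of origin.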

Question: Which “polyreactivity (PSR sort gate)” value does the source give for “QVQLVESGGGLVQAGGSLRLSCAASGITFYRYAMRWYRQAPGKERELVAAISRSGGSTYYADSVKGRFTISRDNAKNTVYLQMNILKPEDTAVYYCAAYILGNRDGYDYWGQGTQVTVSS” here?
Answer: high polyreactivity

Question: For “QVQLVESGGGLVQAGGSLRLSCAASGSIFKRNAMGWYRQAPGKERELVAAITGGGRTNYADSVKGRFTISRDNAKNTVYLQMNSLNPEDTAVYYCAADWYGVGLYYTWTRHDYWGQGTQVTVSS”, which “polyreactivity (PSR sort gate)” value is on record?
Answer: low polyreactivity

Question: With “QVQLVESGGGLVQAGGSLRLSCAASGGIFLVNDMGWYRQAPGKERELFAAITSGGGTYYADSVKGRFTISRDNAKNTVYLQMNSLKPEDTAVYYCARDTYRQIVSNESYGYWGQGTQVTVSS” as the sequence, how does the “polyreactivity (PSR sort gate)” value read?
Answer: low polyreactivity

Question: For “QVQLVESGGGLVQAGGSLRLSCAASGRTFYRYAMGWYRQAPGKERELVAAISGSGTSTSYADSVKGRFTISRDNAKNTVYLQMNSLKPEDTAVYYCAATYYVYYYSRYYYWGQGTQVTVSS”, which “polyreactivity (PSR sort gate)” value is on record?
Answer: high polyreactivity

Question: For “QVQLVESGGGLVQAGGILRLSCAASGSTFGRYAIGWYRPAPGTERELVAAISRRGGSTYYADSVKWRFTISRDNAKNNVYLQMYSLKPVDTAVYYCAADDVRTSGCHFDYWGDGTQVTVSS”, which “polyreactivity (PSR sort gate)” value is on record?
Answer: high polyreactivity

Question: Which “polyreactivity (PSR sort gate)” value does the source give for “QVQLVESGGGLVQAGGSLRLSCAASGRIFFGYAMGWYRLAPGKERELVAAISYGGGRTYYADSVKGRFTISRDNAKNTVSLQMNSLKPEDTAVDYCNKRVTGGSWSPGHYRYNYWGQGSQVTVSS” here?
Answer: high polyreactivity

Question: Which “polyreactivity (PSR sort gate)” value does the source give for “QVQLVESGGGLVQAGGSLRLSCAASGITFNRYAMGWYRQAPGKERELVAGISRGVSTYYADSVKGRFTISRDNAKNTVYLQMKSLKPEDTAVYYCAAKPVVRYVSFGYDYWGQGTQVTVSS” here?
Answer: high polyreactivity

Question: For “QVQLVESGGGLVQARASLRLSCAASGNTIGYYAMGWYRQAHGKERELVAAISKRGGSTRYADSVKGRFTISRDNAKNTVYLQMNSLKPEDTAVYYCNAEGFGSLRYSYCNSFDYWGQGTQVTVSS”, which “polyreactivity (PSR sort gate)” value is on record?
Answer: high polyreactivity

Question: With “QVQLVESGGGIVQAGGSLRLTCAASGRIFPTYAMGWYRQAPGKEREMVATINGDGGSTYYAYSVKGRFTISRDNPKNTVYLHMNSLKPEDTSVDYCAKSYPFAAEYDYWGQGSQVTVSS” as the sequence, how does the “polyreactivity (PSR sort gate)” value read?
Answer: low polyreactivity

Question: Which “polyreactivity (PSR sort gate)” value does the source give for “QVQLVESGGGLVQAGGSLRLSCAASGSIFSAYAMGWYRQAPGKERELVAAISYGGGSTYYADSVKGRFTISRDNAKNTVYLQMNSLKAEDTAVYYCAAASSGEYGYWGQGTQVTVSS” here?
Answer: low polyreactivity

Question: For “QVQLVESGGGLVQAGGSLRLSCAASGRIFVSNGMGWYRQAPGKESELVAVIRSSTGSTYYADSVKGRFTISRDNAKNTVYLQMNSLKPEDTAVYYCAAPNPFFEPSEYDYWAQGTQVTVSS”, which “polyreactivity (PSR sort gate)” value is on record?
Answer: low polyreactivity

Question: With “QVQLVESGGGLVQAGGSLRLSCAASGFTFRQNAKGWYRQAPGKERELVAVITKSAGSTYYADSVKGRFTISRDNAKNTVYLQMNSLKPEDTAVFYCNKRQRFVSSFRRSQGIGWEDDYWGQGTQVTVSS” as the sequence, how does the “polyreactivity (PSR sort gate)” value read?
Answer: low polyreactivity

Question: Which “polyreactivity (PSR sort gate)” value does the source give for “QVQLVESGGGLVQAGGSLRLSCAASGNTFVANDMGWYRQAPGKERELVAVISGSGGDTYYADSVKGRFTISRDNAKNTVYLQMNSLKPEDTAVYYFAADWYGRETDRSDSDYEYWGQGTKVTVSS” here?
Answer: low polyreactivity

Question: Which “polyreactivity (PSR sort gate)” value does the source give for “QVQLVESGGGLVQAGGSLRLSCAASGRTFGLYAMRWYRQAPGKERELVAAISIRGGATYYAVSVKGRFTISRDNAKNTVYLQMNSLKPEDSAVYYCNKGPGRWYYWGQVTQVTVSS” here?
Answer: low polyreactivity

Question: For “QVQLVESGGGLVQAGGRLRLSCAASGLIFRAYAMGWYRQAPGKERELVAAISRRGGSTYYADSVKGRFTISRDNAKNTVYLQMNSLKPEDTAVYYCAATSRVSKSHLYGYWGQGTQVTVSS”, which “polyreactivity (PSR sort gate)” value is on record?
Answer: high polyreactivity

Question: With “QVQLQESGCGLVQAGGSLRLSCAASGSISAVGAMGWYRQAPGKEREFAASVNWGTNTNYADSVKGRFTISRDNAKNTLYLLMNSLTPEDTAVYYCAVLPDWETRHDYWGHGTQVTVSS” as the sequence, how does the “polyreactivity (PSR sort gate)” value read?
Answer: low polyreactivity

Question: For “QVQLVESGGGLVQAGGSLRLSCAASGRIFGYYAMGCYRQAPGKERELVAAIRWGGGRTYADSVKGRFTISRDNAKNTVYLQMNSLKPEDTAVDYCAARFTRTRPLWRARYGYWGQGTQVTVSS”, which “polyreactivity (PSR sort gate)” value is on record?
Answer: high polyreactivity

Question: For “QVQLVESGGRLVQAGGSLRLSCASSGFTFRYYAMGWYRQAPGKERELVASITGNGGSTYYADSVKGRFTISRDNAKNTVFLHMNSLKPEDTAVYYCNARVRGYYEYNYWGQGTQVTVSS”, which “polyreactivity (PSR sort gate)” value is on record?
Answer: high polyreactivity

Question: With “QVQLVESGGGLVQAGGSLRLSCAASGRIFSKNAMGWCRQAPGKERELVAGITSISGSTYYADSVKGRFTISRDNAKNTVYLQMNSLKPEDTAVYYCAARFPHRHYLLYTYDYWGQGTQVTVSS” as the sequence, how does the “polyreactivity (PSR sort gate)” value read?
Answer: low polyreactivity

Question: With “QVQLVESGGRLVQAGASLRLSCAASGFTLHWYAMGWYRQAPGKERELVASITNTGRTYYADSVKGRFTISRDNAKNTVYLQINILKPEDTAVYYCAAGTQYSHYYVADYCRDYWGQGTQVTVSS” as the sequence, how does the “polyreactivity (PSR sort gate)” value read?
Answer: high polyreactivity

Question: With “QVQLVESGGGLVQAGGSLRLSCDASGSTFIYYTMGWYRQAPGKERELVAAINGGGGSTYYADSVKGRFTISRDNAKNTVYLQMNSLKPEDTAVYYCATDPWHRAWGYGWGYNYWGQGTQVTVSS” as the sequence, how does the “polyreactivity (PSR sort gate)” value read?
Answer: low polyreactivity

Question: Which “polyreactivity (PSR sort gate)” value does the source give for “QVQLVESGGGLVQAGGSLRLSCAASASTIIRNAMGWYRQAPGKERELVAAISTSGGRTHYADSVKGRFTISRDNAKNTVYLQMNSLKPEDTAVYYCDTRGKGHYYYWGQGTQVTVSS” here?
Answer: high polyreactivity

Question: For “QVQLVESGGGLVQAGGSLRLSCAASGSTFTVNDMGWYRQAPGKERELVAAITQRDGRTFYADSVKGRFTISRDNAKNTVYLQMNSLKPEDTAVYYCAATFIQVVVNVQLYDYDYWGQGTQVTVSS”, which “polyreactivity (PSR sort gate)” value is on record?
Answer: low polyreactivity

Question: Which “polyreactivity (PSR sort gate)” value does the source give for “QVQLVESGGGLVQAGGSLRLSCAASGFTLVKYVMGWYRQAPGKERELVAAINRSGTSTYYADSVKGRFTISRDNAKYSVYLQMNSLKPEDTAVYYCNADWYRKRNYWGQGTQVTVSS” here?
Answer: high polyreactivity

Question: Which “polyreactivity (PSR sort gate)” value does the source give for “QVQLVESGGGLVQAGGSLRLSCAASGSTFYGNDMGWYRQAPGKERELVAAISSGGSTNYADSVKGRFTISRDNAKNTVYLQMNSLKPEDTAVYYCAADDTPDTMYGSDYWGQGTQVTVSS” here?
Answer: low polyreactivity

Question: Which “polyreactivity (PSR sort gate)” value does the source give for “QVQLVESGGGLVQAGGSLRFSCAASGFIFRDNAMVWYRRAPGKERELVAAISYSGGSTYYADSVKGRFTISRDNAKNTVYLQMNSVKPEDTAVYYCAASYGPKRRGYWGQGTQVTVSS” here?
Answer: high polyreactivity

Question: With “QFQLQESCCGLVQAGGSLRLSCAASGTISYAPQMGWYRQAPGKERELVAGITIGGTTYYADSVKGRFTISRDNAKNTVYLQMNSLSPGDTAVYYCAAHSEQYTPFYYWGQGTQVTVSS” as the sequence, how does the “polyreactivity (PSR sort gate)” value read?
Answer: low polyreactivity

Question: For “QVQLVESGGGLVQAGGSLRLSCAASGYIFCGYAMGWYRQAPGKERELVAAINRGGSTYYADSVKGRFTISRDNAKNTVYLQMNSLKPEDTAVYYCAARLLYYNSIKRYYWGQGTQVTVSS”, which “polyreactivity (PSR sort gate)” value is on record?
Answer: high polyreactivity

Question: With “QVHLGETGGALVQAGGRLRLSCAASGITLGAYAMGWYRQAPGKERELVARIRIGGSTYYADSVKGRFTISRDYAKNTVFLQMNSLKPEDTAVYYCNALYRYLYRSGDYWGQGTQVTVSS” as the sequence, how does the “polyreactivity (PSR sort gate)” value read?
Answer: low polyreactivity

Question: With “QVQLVESGGGLVQAGCSLRLSCAASGSIFDVNAMGWYRQAPGKERELVAAISQRGNRTYYADSVKGRFTISRDNAKNTVYLQMNSLKPEDTAVYYCNRGGWRQYDSWGQGTQVTVSS” as the sequence, how does the “polyreactivity (PSR sort gate)” value read?
Answer: high polyreactivity

Question: Which “polyreactivity (PSR sort gate)” value does the source give for “QVQLVESGGGLVQAGGSLRLSCAASGRTFIVNAMGWYRQAPGKVRELVAAITKGARTYYADSVKGRFTISRDNAKNTVYLQRNSLKPEDTAVYYCNATRLGGNGTRHYYWGQGTQVTVSS” here?
Answer: high polyreactivity

Question: Which “polyreactivity (PSR sort gate)” value does the source give for “QVQLVESGGGLVQAGGSLRLSCAASGFIFSPYAMGWYRQAPGKERELVAAISSGGSTYYADSVKGRFTISRDNAKNTVYLQMNSLKPEDTAVYYCAASWGRRKPRMDYWGLGTQVTVSS” here?
Answer: high polyreactivity

Question: With “QVQLVESGGGLVQAGGSLRLSCAASGFTFYYNAMGWYRQAPGKERELVAAISSRGTSTYYADSVKGRFTISRDNAKNTVYLQMNSLKPEDTAVYYCNTDRIGRYYQSYGGGHMDYWGQGTQVTVSS” as the sequence, how does the “polyreactivity (PSR sort gate)” value read?
Answer: high polyreactivity

Question: With “QVQLVESGGGLVQAGGSLRLSCAASGFIFGYYAMGWYRQAPGKERELVAAISWSGGSTYYADSVKGRFTISRDKAKNTVYLQMNSLKPEDTAVYYCATASPSTRYGRLGDYWGQGTQVTVSS” as the sequence, how does the “polyreactivity (PSR sort gate)” value read?
Answer: low polyreactivity

Question: With “QVQLVESGGGLVQAGGSLRLSCAASGRIFYYYAMGWYRQAPGKEREFVAAISQRGGSTSYADSVKGRFTISRDNAKNTVYLQMNSLKPEDTAVYYCAAEYYLRVSGRTYVTSHDYWGQGTQVTVSS” as the sequence, how does the “polyreactivity (PSR sort gate)” value read?
Answer: high polyreactivity

Question: For “QVQLVESGGGLVQAGGSLRLSCAASGSIFRVYAMGWYRHAPGKERELVATITWNGGSTYYADSVKGRFTISRDNAKNTVYLQMNSLKPEDTAVYYCAAGRDTWPSTYYYWGQGSQVTVSS”, which “polyreactivity (PSR sort gate)” value is on record?
Answer: low polyreactivity

Question: With “QVQLVESGGGLVQAGGSLHLSCAASGFTFDGYTMGWYRQAPGKERELVATITTGGSTYYADSVKGRFTISRDNAKNTVYLQMNSLKPEDTAVYYCAADYRGVPYIKWPKDFEYWGQGTQVTVSS” as the sequence, how does the “polyreactivity (PSR sort gate)” value read?
Answer: low polyreactivity

Question: With “QVQLVESGGGLVQAGGSLRLSCAASGSTIRVYGMGWYRQAPGKERELVAAIRWIGGRTYYADSVKARFTISRDNAKNTVYLQMNSLKPEDTAVYYCNARAGPVRFDYWGQGTQVTVAS” as the sequence, how does the “polyreactivity (PSR sort gate)” value read?
Answer: low polyreactivity

Question: Which “polyreactivity (PSR sort gate)” value does the source give for “QVQLVESGGGLVQAGGSLRLSCAASGRIFGKYAMGWYRQAPGKERELVAAIRITGGSTYYADSVKGRFTISRDNAKNTVYLEMNSLKPEDTAVYYCAAVYLKTYYWGQGTQVTVSS” here?
Answer: high polyreactivity

Question: With “QVQLVESGGGLVQAGGSLRLSCAASGFTFPVYAMGWYRQATGKVRELVAAISRRGGRTYYADSVKGRFTISRDNAKNTVSLQMNSLKPEDTAVYYCNKGETLYGSVPYDYWGQGTQVTVSS” as the sequence, how does the “polyreactivity (PSR sort gate)” value read?
Answer: high polyreactivity
